According to paper PMC7144902, “Absence of MeCP2 binding to non-methylated GT-rich sequences in vivo”:
Where a chain is given by its changes, count along the chain named.

Tests used:
Conditions in all cases: protein: recombinant; tags: C-terminal His; label: 32P; blunt
[1] = target: T1, MeCP2[1-205] (Homo sapiens, UniProt P51608 1-205); assay: EMSA; stronger than mCAC and GGTGT; EMSA: 10 mM Tris-HCl pH 7.5, 150 mM KCl (250 mM for MeCP2[1-486]), 0.1 mg/ml BSA, 5% glycerol, 0.1 mM EDTA, 1 ug poly(dA-dT), 1 ng probe, 20 ul, 30 min on ice
[2] = target: MeCP2[1-486] (Homo sapiens, UniProt P51608 1-486); assay: EMSA; 250 mM KCl; preferred over CG; EMSA: 10 mM Tris-HCl pH 7.5, 150 mM KCl (250 mM for MeCP2[1-486]), 0.1 mg/ml BSA, 5% glycerol, 0.1 mM EDTA, 1 ug poly(dA-dT), 1 ng probe, 20 ul, 30 min on ice
[3] = target: T1, MeCP2[1-205]; assay: EMSA; similar to GGTGT and mCAC; EMSA: 10 mM Tris-HCl pH 7.5, 150 mM KCl (250 mM for MeCP2[1-486]), 0.1 mg/ml BSA, 5% glycerol, 0.1 mM EDTA, 1 ug poly(dA-dT), 1 ng probe, 20 ul, 30 min on ice
[4] = target: T1, MeCP2[1-205]; assay: EMSA; EMSA: 10 mM Tris-HCl pH 7.5, 150 mM KCl (250 mM for MeCP2[1-486]), 0.1 mg/ml BSA, 5% glycerol, 0.1 mM EDTA, 1 ug poly(dA-dT), 1 ng probe, 20 ul, 30 min on ice
[5] = target: MeCP2[77-167] (Homo sapiens, UniProt P51608 77-167); assay: as above
[6] = target: T1, MeCP2[1-205]; assay: EMSA; comparable to mCAC, lower than mCG; EMSA: 10 mM Tris-HCl pH 7.5, 150 mM KCl (250 mM for MeCP2[1-486]), 0.1 mg/ml BSA, 5% glycerol, 0.1 mM EDTA, 1 ug poly(dA-dT), 1 ng probe, 20 ul, 30 min on ice
[7] = target: T1, MeCP2[1-205]; assay: EMSA; only marginal effect; EMSA: 10 mM Tris-HCl pH 7.5, 150 mM KCl (250 mM for MeCP2[1-486]), 0.1 mg/ml BSA, 5% glycerol, 0.1 mM EDTA, 1 ug poly(dA-dT), 1 ng probe, 20 ul, 30 min on ice
[8] = target: T1, MeCP2[1-205]; assay: EMSA; background only; EMSA: 10 mM Tris-HCl pH 7.5, 150 mM KCl (250 mM for MeCP2[1-486]), 0.1 mg/ml BSA, 5% glycerol, 0.1 mM EDTA, 1 ug poly(dA-dT), 1 ng probe, 20 ul, 30 min on ice
[9] = target: T1, MeCP2[1-205]; assay: EMSA; no significant binding; EMSA: 10 mM Tris-HCl pH 7.5, 150 mM KCl (250 mM for MeCP2[1-486]), 0.1 mg/ml BSA, 5% glycerol, 0.1 mM EDTA, 1 ug poly(dA-dT), 1 ng probe, 20 ul, 30 min on ice

B1: mCG (dsDNA)
DNA 1: AAGCATGCAATGCCCTGGAACGGAATTCTTCTAATAAAAGATGTATCATTTTAAATGC
DNA 2: GCATTTAAAATGATACATCTTTTATTAGAAGAATTCCGTTCCAGGGCATTGCATGCTT
modifications: 5mC at strand 1 position 21; reverse strand the appropriate methylated oligo (position not given)
binding result [1]: binds
binding result [2]: binds

B2: GT3 (dsDNA)
DNA 1: AAGCATGCAATGCCCTGGAAGTGTGTAATTCTTCTAATAAAAGATGTATCATTTTAAATGC
DNA 2: GCATTTAAAATGATACATCTTTTATTAGAAGAATTACACACTTCCAGGGCATTGCATGCTT
binding result [3]: binds

B3: GT4 (dsDNA)
DNA 1: AAGCATGCAATGCCCTGGAAGTGTGTGTAATTCTTCTAATAAAAGATGTATCATTTTAAATGC
DNA 2: GCATTTAAAATGATACATCTTTTATTAGAAGAATTACACACACTTCCAGGGCATTGCATGCTT
binding result [3]: binds

B4: GT5 (dsDNA)
DNA 1: AAGCATGCAATGCCCTGGAAGTGTGTGTGTAATTCTTCTAATAAAAGATGTATCATTTTAAATGC
DNA 2: GCATTTAAAATGATACATCTTTTATTAGAAGAATTACACACACACTTCCAGGGCATTGCATGCTT
binding result [3]: binds

B5: mCAC (dsDNA)
DNA 1: B1 DNA 1 with G22A, G23C
DNA 2: B1 DNA 2 with C36G, C37T
modifications: 5mC at strand 1 position 21
binding result [4]: binds
binding result [5]: binds

B6: GGTGT (dsDNA)
DNA 1: AAGCATGCAATGCCCTGGAAGGTGTAATTCTTCTAATAAAAGATGTATCATTTTAAATGC
DNA 2: GCATTTAAAATGATACATCTTTTATTAGAAGAATTACACCTTCCAGGGCATTGCATGCTT
binding result [6]: binds

B7: GGTGU (dsDNA)
DNA 1: B6 DNA 1 with T25U
DNA 2: B6 DNA 2
modifications: 3' motif T replaced by deoxyuridine
binding result [7]: binds

B8: CAC (dsDNA)
DNA 1: B1 DNA 1 with G22A, G23C
DNA 2: B1 DNA 2 with C36G, C37T
binding result [8]: no binding

B9: GT1 (dsDNA)
DNA 1: AAGCATGCAATGCCCTGGAAGTAATTCTTCTAATAAAAGATGTATCATTTTAAATGC
DNA 2: GCATTTAAAATGATACATCTTTTATTAGAAGAATTACTTCCAGGGCATTGCATGCTT
binding result [9]: no binding

B10: GT2 (dsDNA)
DNA 1: AAGCATGCAATGCCCTGGAAGTGTAATTCTTCTAATAAAAGATGTATCATTTTAAATGC
DNA 2: GCATTTAAAATGATACATCTTTTATTAGAAGAATTACACTTCCAGGGCATTGCATGCTT
binding result [3]: binds
